One experiment addresses T1, untagged LaminB1 (human, UniProt P20700 1-586).
T1 construct: Lamin B1, human, subcloned from mTagRFP-hLaminB1 into the Intein-pMXB10 vector between NdeI and XhoI; Cloning through the XhoI site may leave a few vector residues at the C-terminus after the intein is cut off (surmise); also called recombinant LaminB1; LaminB1(PMXB10); source: E. coli SHuffle (C3026), purified (chitin resin, released with 50 mM DTT)
T1 sequence (looked up): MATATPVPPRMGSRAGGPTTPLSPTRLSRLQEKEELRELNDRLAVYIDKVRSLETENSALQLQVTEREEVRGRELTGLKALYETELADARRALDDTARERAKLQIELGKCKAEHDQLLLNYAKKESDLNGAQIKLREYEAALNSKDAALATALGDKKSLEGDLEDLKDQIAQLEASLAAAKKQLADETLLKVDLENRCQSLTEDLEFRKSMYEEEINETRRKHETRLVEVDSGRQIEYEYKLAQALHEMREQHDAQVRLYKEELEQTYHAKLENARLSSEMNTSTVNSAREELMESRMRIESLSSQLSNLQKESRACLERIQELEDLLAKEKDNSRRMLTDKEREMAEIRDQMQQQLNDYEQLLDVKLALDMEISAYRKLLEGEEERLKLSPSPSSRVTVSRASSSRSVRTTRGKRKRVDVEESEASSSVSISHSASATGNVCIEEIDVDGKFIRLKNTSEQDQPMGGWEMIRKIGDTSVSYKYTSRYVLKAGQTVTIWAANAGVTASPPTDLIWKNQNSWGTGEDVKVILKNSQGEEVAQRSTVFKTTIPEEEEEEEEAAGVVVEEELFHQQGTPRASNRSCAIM
Put plainly: pull-down; amylose-MBP matrix alone or coupled with MBP-Jacob proteins, washed in 20 mM Tris pH 7.5, 1 mM DTT, 3 mM EDTA, 100 mM NaCl, 0.3% TritonX-100; incubated with 20 μg of untagged LaminB1 or untagged CRM1 overnight at 4 °C; Western blot. Particulars: both partners purified.

The target in another experiment is T2, untagged-CRM1 (human, UniProt O14980 1-1071).
T2 construct: CRM1 (Exportin 1), human, subcloned from 3xFLAG-hCRM1 into the Intein-pMXB10 vector between NdeI and XhoI; Cloning through the XhoI site may leave a few vector residues at the C-terminus after the intein is cut off (surmise); also called recombinant CRM1; CRM1 (PMXB10); source: E. coli ExpressLysY/Iq, purified (chitin resin, released with 50 mM DTT)
Described as above. Particulars: both partners purified.

T2 sequence (O14980 whole entry): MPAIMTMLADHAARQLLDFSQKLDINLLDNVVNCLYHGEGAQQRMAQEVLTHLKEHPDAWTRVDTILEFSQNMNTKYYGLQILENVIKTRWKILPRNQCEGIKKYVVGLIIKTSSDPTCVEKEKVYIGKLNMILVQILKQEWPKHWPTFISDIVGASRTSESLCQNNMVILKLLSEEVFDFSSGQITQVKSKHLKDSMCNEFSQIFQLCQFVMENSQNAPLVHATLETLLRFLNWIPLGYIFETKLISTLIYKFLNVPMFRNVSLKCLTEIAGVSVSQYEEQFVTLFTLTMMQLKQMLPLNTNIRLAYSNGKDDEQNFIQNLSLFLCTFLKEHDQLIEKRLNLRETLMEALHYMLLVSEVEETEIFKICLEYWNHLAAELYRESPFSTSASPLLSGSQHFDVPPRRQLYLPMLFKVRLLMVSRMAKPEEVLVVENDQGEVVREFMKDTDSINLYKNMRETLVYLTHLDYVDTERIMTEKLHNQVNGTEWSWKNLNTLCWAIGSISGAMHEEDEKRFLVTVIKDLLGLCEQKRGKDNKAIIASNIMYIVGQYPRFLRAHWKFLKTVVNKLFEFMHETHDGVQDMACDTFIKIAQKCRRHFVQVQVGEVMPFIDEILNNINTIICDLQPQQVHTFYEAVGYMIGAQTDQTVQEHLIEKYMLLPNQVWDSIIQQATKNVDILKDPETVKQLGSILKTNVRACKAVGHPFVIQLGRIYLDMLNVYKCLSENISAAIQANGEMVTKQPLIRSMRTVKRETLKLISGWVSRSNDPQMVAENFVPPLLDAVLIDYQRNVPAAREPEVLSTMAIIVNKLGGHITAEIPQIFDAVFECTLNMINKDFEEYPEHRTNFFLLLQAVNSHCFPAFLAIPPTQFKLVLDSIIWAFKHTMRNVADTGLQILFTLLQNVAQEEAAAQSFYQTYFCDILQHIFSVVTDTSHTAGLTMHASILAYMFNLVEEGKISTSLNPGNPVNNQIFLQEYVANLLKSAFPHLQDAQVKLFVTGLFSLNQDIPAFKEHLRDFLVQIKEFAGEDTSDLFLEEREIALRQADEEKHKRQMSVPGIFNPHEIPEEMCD

B1: MBP-45-532-Jacob (domain or fragment, rat, UniProt Q9EPI6 45-532, looked up)
chain: DHLLADAYSGHEGSPEMQPAPHNKRRLSLVSNGRYEGSISDEAVSGKTATEGPQPRVYTISREPALLPGSEAEAIELAVVKGRRQRERHPHHHSQPLRASPGSSREDISRPCQSWAGSRQGSKECPGCAKLVPGPSPRAFGLEQPPLPEASGRHKKLERMYSVDGVSDDVPIRTWFPKENPFSFQTATTTMQAISVFRGYAERKRRKRENDSASVIQRNFRKHLRMVGSRRVKAQTFAERRERSFSRSWSDPTPMKADTSHDSRDSSDLQSSHCTLDEACEDLDWDTEKGLEATACDTEGFLPPKVMLISSKVPKAEYIPTIIRRDDPSIIPILYDHEHATFEDILEEIEKKLNIYHKGAKIWKMLIFCQGGPGHLYLLKNKVATFAKVEKEEDMIHFWKRLSRLMSKVNPEPNVIHIMGCYILGNPNGEKLFQNLRTLMTPYKVTFESPLELSAQGKQMIETYFDFRLYRLWKSRQHSKLLDFDDVL
notes: Jacob (Nsmf), residues 45-532, truncated for protein stability; also called amylose-MBP-45-532-Jacob; Jacob fused to MBP; source: E. coli SHuffle (C3026), pMAL vector, coupled to amylose resin
For the molecule B1, the binding result in the experiment with untagged LaminB1 and with untagged-CRM1 was “binds” in each case.

The values above are taken from PMC7802242, “The nuclear lamina is a hub for the nuclear function of Jacob” (Molecular Brain, 2021).
